The target in assay [1] is RDC-1 (NEOKINE receptor), transiently expressed in 293 cells. Put plainly: 125I-T112 at 0.1 nm on 293 cells transiently transfected with RDC-1, no competitor.
The target is the same in assay [2]. Nature of the assay: competition: bound 125I-T112 on RDC-1-transfected 293 cells with unlabelled T112 at 3.0 nm.

“And” between values parts separate entries of the source, which are not always exact repeats. Equal values may be shown once.

Regarding “125I-T112 (radioiodinated NEOKINE) (ligand)”, the cpm bound in cell pellets in assay [1] was 37600 cpm and 27000 cpm.

As for T112 (NEOKINE), unlabelled (ligand), the cpm bound in cell pellets in assay [2] is 8340 cpm and 9230 cpm.

Source of the values: US20110306044A1.
